The values that follow come from paper PMC9960064.

Holding throughout (assay): ITC
(In general: In ITC the heat of successive injections is recorded.)

Assay [1] addresses untagged β′-COP residues 1–604 (yeast (S. cerevisiae)) (UniProt P41811).
Assay [2] has as its target C-terminal β′-COP propeller (residues 300–604), untagged (yeast (S. cerevisiae)) (UniProt P41811).
The target in assay [3] is β′-COP R13A/K15A/R59A (RKR mutant), residues 1–604, untagged (yeast (S. cerevisiae)) (UniProt P41811).

Sequence of untagged β′-COP residues 1–604 (yeast (S. cerevisiae)) (P41811 1-604): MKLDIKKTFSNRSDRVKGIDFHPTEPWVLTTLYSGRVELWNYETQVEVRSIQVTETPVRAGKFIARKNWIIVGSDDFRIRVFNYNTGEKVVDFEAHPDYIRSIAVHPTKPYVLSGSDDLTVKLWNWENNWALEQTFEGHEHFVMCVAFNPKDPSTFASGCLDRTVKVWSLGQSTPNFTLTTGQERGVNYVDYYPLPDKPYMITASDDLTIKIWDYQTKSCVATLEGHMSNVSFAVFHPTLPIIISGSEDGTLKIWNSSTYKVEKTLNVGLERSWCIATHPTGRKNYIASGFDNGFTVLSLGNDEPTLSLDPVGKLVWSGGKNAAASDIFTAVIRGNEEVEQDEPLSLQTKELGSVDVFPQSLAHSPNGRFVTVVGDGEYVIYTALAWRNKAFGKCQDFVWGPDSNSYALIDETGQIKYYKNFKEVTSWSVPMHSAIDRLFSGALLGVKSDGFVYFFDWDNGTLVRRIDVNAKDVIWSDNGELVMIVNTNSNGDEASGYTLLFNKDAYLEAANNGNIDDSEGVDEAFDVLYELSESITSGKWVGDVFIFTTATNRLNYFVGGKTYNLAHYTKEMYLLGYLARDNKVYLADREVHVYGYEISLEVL
Sequence of C-terminal β′-COP propeller (residues 300–604), untagged (yeast (S. cerevisiae)) (P41811 300-604): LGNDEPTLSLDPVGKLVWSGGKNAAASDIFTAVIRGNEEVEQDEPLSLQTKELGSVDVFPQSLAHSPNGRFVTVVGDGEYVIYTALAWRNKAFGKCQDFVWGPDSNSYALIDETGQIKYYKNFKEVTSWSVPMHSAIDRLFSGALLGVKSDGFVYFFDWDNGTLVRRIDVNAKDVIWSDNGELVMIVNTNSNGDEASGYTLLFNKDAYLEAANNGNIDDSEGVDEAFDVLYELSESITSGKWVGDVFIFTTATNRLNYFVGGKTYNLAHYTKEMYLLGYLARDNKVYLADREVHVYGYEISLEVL
Sequence of untagged Glo3 BoCCS fragment (residues 230–300) (P38682 230-300): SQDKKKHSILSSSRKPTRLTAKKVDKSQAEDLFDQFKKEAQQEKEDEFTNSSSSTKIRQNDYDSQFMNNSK
Sequence of untagged Glo3 residues 230–290 (P38682 230-290): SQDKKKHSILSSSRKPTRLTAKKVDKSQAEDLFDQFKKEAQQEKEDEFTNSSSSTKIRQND

In the case of “Glo3 fragment lacking N-terminal residues 230–240, untagged (domain or fragment)”, the Kd in assay [1] was more than 300 µM. Consider “full BoCCS Glo3 fragment (residues 208–383), untagged (from UniProt P38682 208-383) (domain or fragment)”, for which, in assay [1], the stoichiometry N was 1. In assay [2], “untagged Glo3 BoCCS fragment (residues 230–300) (from UniProt P38682 230-300) (domain or fragment)” registered a Kd of less than 300 µM. Substance “untagged Glo3 residues 230–290 (from UniProt P38682 230-290) (domain or fragment)” came in with a fold weaker binding than wild-type β′-COP in assay [3] of 16 fold.

The Kd is the concentration at which binding is half-saturated. A high value points to a looser complex. The stoichiometry N is the number of molecules, sites or subunits per partner or assembly.
